This note sets out measurements from article PMC7801617 (2021).

No end group written: not given here.

Experiment in all cases: FP
The target of assay [1] is talin-1 R7–R8 fragment (residues 1355–1652) with mutation R1368W (mouse, UniProt P26039 1355-1652, R1368W).
The target in assay [2] is T1, talin-1 R7–R8 fragment, wildtype (residues 1355–1652) (mouse, UniProt P26039 1355-1652).
T1 chain: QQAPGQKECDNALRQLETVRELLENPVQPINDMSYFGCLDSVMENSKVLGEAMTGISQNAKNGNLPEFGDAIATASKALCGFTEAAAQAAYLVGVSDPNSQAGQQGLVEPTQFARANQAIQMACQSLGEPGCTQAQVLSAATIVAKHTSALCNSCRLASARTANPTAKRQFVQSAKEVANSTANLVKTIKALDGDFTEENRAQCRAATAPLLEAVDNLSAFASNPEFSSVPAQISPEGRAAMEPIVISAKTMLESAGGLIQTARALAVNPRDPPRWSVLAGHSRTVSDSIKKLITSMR

In assay [3] the target is talin-1 R7–R8 fragment (residues 1355–1652) with mutation Y1389C (mouse, UniProt P26039 1355-1652, Y1389C).
Chain of talin-1 R7–R8 fragment (residues 1355–1652) with mutation Y1389C (P26039 1355-1652 Y1389C): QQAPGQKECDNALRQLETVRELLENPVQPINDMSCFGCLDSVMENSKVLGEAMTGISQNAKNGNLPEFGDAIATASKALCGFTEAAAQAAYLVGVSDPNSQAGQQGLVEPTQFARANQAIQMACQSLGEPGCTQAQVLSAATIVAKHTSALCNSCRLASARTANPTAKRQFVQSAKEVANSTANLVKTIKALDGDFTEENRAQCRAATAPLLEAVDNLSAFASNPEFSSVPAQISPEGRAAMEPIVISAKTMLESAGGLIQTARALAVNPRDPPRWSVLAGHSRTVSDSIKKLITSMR

Chain of talin-1 R7–R8 fragment (residues 1355–1652) with mutation R1368W (P26039 1355-1652 R1368W): as the sequence (P26039 1355-1652 Y1389C) above, with R14W, C35Y counted along it

Regarding PYFVETPYGFQLDLDFVKYVDDIQKGNTIKKLNIQKRRKC (BODIPY or Fluorescein dye coupled via the C-terminal cysteine residue) [KANK1 (30–68) peptide], the dissociation constant (Kd) in assay [1] turned out to be 0.39 µM; in assay [2] it was 0.35 µM; in assay [3], 0.35 µM.
As to SEDIDQMFSTLLGEMDLLTQSLGVDTC (also: BODIPY or Fluorescein dye coupled via C-terminal Cys) [RIAM (4–30) peptide], the Kd in assay [1] stood at 3.3 µM; in assay [2], 3.6 µM; in assay [3], 3.6 µM.

For orientation: Kd means the constant that tells how readily two partners part at equilibrium. High values mean lower affinity, low ones higher affinity.
